The source of these data is the Immune Epitope Database (IEDB).

A value given as a limit tells only on which side of the number the result lay.

The target of one assay is HLA-A*24:02. Description: IEDB peptide-MHC binding, cellular MHC/competitive/fluorescence; ≥ and ≤ were set here for values at or beyond the usual limits of such assays. Particulars: source organism: Human herpesvirus 5 strain AD169.
The target of a further assay is HLA-B*73:01. The experiment in a line: IEDB peptide-MHC binding, purified MHC/competitive/fluorescence; filed as Kd, often an IC50 or EC50 that approximates it; ≥ and ≤ were set here for values at or beyond the usual limits of such assays. Particulars: source organism: Yersinia enterocolitica subsp. enterocolitica 8081.
The target of assay [1] is HLA-B*15:02. The description is as above.
A further assay deals with HLA-A*31:01. The experiment in a line: IEDB peptide-MHC binding, purified MHC/direct/fluorescence; filed as Kd, often an IC50 or EC50 that approximates it; ≥ and ≤ were set here for values at or beyond the usual limits of such assays.
In another assay the target is HLA-B*35:01. The assay is described as above.
The target in a further assay is HLA-B*58:01. The description is as above.
The target in the next assay is HLA-A*01:01. Described as above.
A further assay deals with HLA-A*02:01. The description is as above.
Another assay has as its target HLA-B*40:01. Described as above. Conditions: source organism: Pasteurella multocida.
A further assay has as its target HLA-B*08:01. The assay is described as above. Conditions: source organism: Pasteurella multocida.
The next assay deals with HLA-B*07:02. The description is as above.
In a further assay the target is HLA-B*15:01. Described as above.
Another assay has as its target HLA-A*69:01. Described as above.
The target in assay [2] is HLA-A*11:01. The description is as above.
Assay [3] addresses HLA-A*26:01. Described as above. Particulars: source organism: Pasteurella multocida.
For the next assay, the target named is HLA-B*27:05. The description is as above.
Another assay deals with HLA-A*03:01. The description is as above. Particulars: source organism: Pasteurella multocida.
Assay [4] concerns the target HLA-B*15:02. Described as above.
The target of another assay is HLA-B*57:01. The description is as above. Conditions: source organism: Camelpox virus M-96.
The target in another assay is HLA-A*68:02. Described as above. Conditions: source organism: Camelpox virus M-96.
A further assay deals with HLA-B*48:01. The description is as above.
A further assay concerns the target HLA-B*46:01. The description is as above.
Another assay concerns the target HLA-B*08:02. The assay is described as above.
The target in a further assay is HLA-A*26:03. Described as above. Particulars: source organism: Variola virus.
The next assay addresses HLA-A*26:02. The experiment in a line: IEDB peptide-MHC binding, purified MHC/competitive/fluorescence; filed as Kd, often an IC50 or EC50 that approximates it; ≥ and ≤ were set here for values at or beyond the usual limits of such assays. Conditions: source organism: Vaccinia virus WR.
The target of the next assay is HLA-B*15:17. Described as above. Particulars: source organism: Vaccinia virus WR.
Another assay addresses HLA-B*15:03. The experiment in a line: IEDB peptide-MHC binding, purified MHC/competitive/radioactivity; filed as Kd, often an IC50 or EC50 that approximates it; ≥ and ≤ were set here for values at or beyond the usual limits of such assays. Particulars: source organism: Vaccinia virus WR.
The target of another assay is HLA-B*39:01. Description: IEDB peptide-MHC binding, purified MHC/direct/fluorescence; filed as Kd, often an IC50 or EC50 that approximates it; ≥ and ≤ were set here for values at or beyond the usual limits of such assays. Conditions: source organism: Yersinia pestis KIM10+.
The next assay addresses HLA-B*15:09. Described as above. Particulars: source organism: Yersinia pestis KIM10+.
The target in assay [5] is HLA-A*11:01. Description: IEDB peptide-MHC binding, purified MHC/competitive/fluorescence; filed as Kd, often an IC50 or EC50 that approximates it; ≥ and ≤ were set here for values at or beyond the usual limits of such assays. Conditions: source organism: Yersinia pestis KIM10+.
Assay [6] concerns the target HLA-A*26:01. Described as above. Particulars: source organism: Yersinia pestis KIM10+.
In the next assay the target is HLA-C*15:02. The experiment in a line: IEDB peptide-MHC binding, purified MHC/direct/fluorescence; filed as Kd, often an IC50 or EC50 that approximates it; ≥ and ≤ were set here for values at or beyond the usual limits of such assays. Particulars: source organism: Burkholderia pseudomallei 406e.
The next assay has as its target HLA-C*07:02. Described as above. Conditions: source organism: Burkholderia pseudomallei 406e.
The target in the next assay is HLA-C*14:02. The description is as above. Conditions: source organism: Burkholderia pseudomallei 406e.
The next assay has as its target HLA-A*32:15. The experiment in a line: IEDB peptide-MHC binding, purified MHC/competitive/fluorescence; filed as Kd, often an IC50 or EC50 that approximates it; ≥ and ≤ were set here for values at or beyond the usual limits of such assays. Conditions: source organism: Burkholderia pseudomallei 406e.
Another assay has as its target HLA-B*27:20. Described as above. Particulars: source organism: Burkholderia pseudomallei 406e.
In the next assay the target is HLA-B*40:13. Described as above. Conditions: source organism: Burkholderia pseudomallei 406e.
A further assay addresses HLA-C*06:02. Described as above. Particulars: source organism: Burkholderia pseudomallei 406e.
In a further assay the target is HLA-A*68:23. Described as above. Particulars: source organism: Burkholderia pseudomallei 406e.
For a further assay, the target named is HLA-A*29:02. Described as above. Particulars: source organism: Burkholderia pseudomallei 406e.
Another assay has as its target HLA-B*83:01. Described as above. Particulars: source organism: Burkholderia pseudomallei 406e.
The target of another assay is HLA-B*45:06. The description is as above. Conditions: source organism: Burkholderia pseudomallei 406e.
The next assay has as its target HLA-B*15:42. Described as above. Conditions: source organism: Burkholderia pseudomallei 406e.
Setting [7] is: source organism: Pasteurella multocida.
[8] abbreviates: source organism: Camelpox virus M-96.
[9] abbreviates: source organism: Yersinia pestis.
The mark [10] stands for this setting: source organism: Yersinia pestis KIM10+.

With VFPTKDVAL, the IC50 in the assay with HLA-A*24:02 was at least 333 µM.
For WDYLVRHDA, the Kd in the assay with HLA-B*73:01 is 4.5 µM.
In the assay with HLA-B*15:02 [1] (source organism: Burkholderia pseudomallei K96243), MQLPQGGAF came in with a Kd of 0.0235 µM.
Take SQLEMCEKY: the Kd was at least 20 µM with HLA-A*31:01 (setting [7]); 0.121 µM with HLA-B*35:01 (setting [7]); at least 20 µM in the assay with HLA-B*58:01 (setting [7]); at least 20 µM with HLA-A*01:01 (setting [7]); at least 20 µM with HLA-A*02:01 (setting [7]); at least 20 µM in the assay with HLA-B*40:01. Also, the Kd is at least 20 µM with HLA-B*08:01; at least 20 µM in the assay with HLA-B*07:02 (setting [7]); 0.299 µM with HLA-B*15:01 (setting [7]); at least 20 µM with HLA-A*69:01 (setting [7]); at least 20 µM with HLA-A*11:01 [2] (setting [7]); at least 20 µM with HLA-A*26:01 [3]. The figures for the Kd with HLA-B*27:05 (setting [7]), with HLA-A*03:01 and in the assay with HLA-B*15:02 [1] (source organism: Pasteurella multocida subsp. multocida str. Pm70) were at least 20 µM, at least 20 µM and 0.0744 µM, respectively.
With YQYIFLSFF, the Kd with HLA-A*31:01 (setting [8]) is at least 20 µM; in the assay with HLA-B*15:02 [4] (source organism: Variola virus) it was 1.94 µM; with HLA-B*58:01 (setting [8]) it was at least 20 µM; with HLA-A*01:01 (setting [8]), at least 20 µM; with HLA-B*57:01 it was at least 20 µM; in the assay with HLA-A*02:01 (setting [8]), at least 20 µM. For the same sequence, the Kd in the assay with HLA-A*68:02, in the assay with HLA-B*48:01 (setting [8]), with HLA-B*46:01 (setting [8]), with HLA-B*08:02 (source organism: Variola virus), in the assay with HLA-A*26:03 and with HLA-B*07:02 (setting [8]) was at least 20 µM each time. The Kd with HLA-B*15:01 (setting [8]) is 3.06 µM; with HLA-A*69:01 (setting [8]), at least 20 µM; with HLA-A*11:01 [2] (setting [8]), at least 20 µM; in the assay with HLA-B*27:05 (setting [8]), at least 20 µM; with HLA-A*26:02, at least 20 µM; with HLA-B*15:17, at least 20 µM. Further, in the assay with HLA-B*15:03, the equilibrium dissociation constant (Kd) is 0.000944 µM.
On to STFAASGPF, for which the Kd was at least 20 µM in the assay with HLA-A*31:01 (setting [9]); 0.045 µM in the assay with HLA-B*35:01 (setting [10]); 0.009 µM with HLA-B*15:02 [4] (setting [10]); at least 20 µM with HLA-B*58:01 (setting [9]); at least 20 µM with HLA-A*01:01 (setting [9]); at least 20 µM in the assay with HLA-A*02:01 (setting [9]). Moreover, the Kd with HLA-B*39:01 was at least 20 µM; in the assay with HLA-B*48:01 (setting [9]), at least 20 µM; with HLA-B*46:01 (setting [9]), 6.19 µM; in the assay with HLA-B*08:02 (setting [10]), at least 20 µM; in the assay with HLA-B*07:02 (setting [9]), at least 20 µM; with HLA-B*15:01 (setting [9]), 0.007 µM. The Kd is at least 20 µM in the assay with HLA-B*15:09, at least 20 µM in the assay with HLA-B*27:05 (setting [9]), at least 20 µM with HLA-A*11:01 [5] and 0.0192 µM in the assay with HLA-A*26:01 [6].
As to MSWGWRLPF, the Kd came to 1.72 µM in the assay with HLA-C*15:02; 0.248 µM with HLA-C*07:02; 0.286 µM with HLA-C*14:02; 0.005 µM with HLA-A*32:15; 0.0497 µM with HLA-B*27:20; 0.223 µM with HLA-B*40:13. The Kd with HLA-C*06:02 is 0.387 µM; with HLA-A*68:23 it was 0.0802 µM; with HLA-A*29:02, 0.0161 µM; with HLA-B*83:01 it was 5.92 µM; with HLA-B*45:06, at least 5 µM; with HLA-B*15:42, at least 5 µM.

As usually defined, the IC50 is the concentration that gives 50% inhibition. A low value points to inhibition by little substance. The term Kd denotes the equilibrium constant for the complex coming apart.
